{"source": "patent US6379950", "about": "(THOMAS JEFFERSON UNIVERSITY, dated 2002)", "binders": {"B1": {"name": "caspase-6 (wild type) (protein)", "chain": "MSSASGLRRGHPAGGEENMTETDAFYKREMFDPAEKYKMDHRRRGIALIFNHERFFWHLTLPERRGTCADRDNLTRRFSDLGFEVKCFNDLKAEELLLKIHEVSTVSHADADCFVCVFLSHGEGNHIYAYDAKIEIQTLTGLFKGDKCHSLVGKPKIFIIQACRGNQHDVPVIPLDVVDNQTEKLDTNITEVDAASVYTLPAGADFLMCYSVAEGYYSHRETVNGSWYIQDLCEMLGKYGSSLEFTELLTLVNRKVSQRRVDFCKDPSAIGKKQVPCFASMLTKKLHFFPKSN"}, "B2": {"name": "rev-caspase-3 (protein)", "chain": "MIETDSGVDDDMACHKIPVEADFLYAYSTAPGYYSWRNSKDGSWFIQSLCAMLKQYADKLEFMHILTRVNRKVATEFESFSFDATFHAKKQIPCIVSMLTKELYFYHDEVDGGSPMENTENSVDSKSIKNLEPKIIHGSESMDSGISLDNSYKMDYPEMGLCIIINNKNFHKSTGMTSRSGTDVDAANLRETFRNLKYEVRNKNDLTREEIVELMRDVSKEDHSKRSSFVCVLLSHGEEGIIFGTNGPVDLKKITNFFRGDRCRSLTGKPKLFIIQACRGTELDCGIETD"}, "B3": {"name": "rev-caspase-6 (protein)", "chain": "MVEIDAASVYTLPAGADFLMCYSVAEGYYSHRETVNGSWYIQDLCEMLGKYGSSLEFTELLTLVNRKVSQRRVDFCKDPSAIGKKQVPCFASMLTKKLHFFPKSNLEHHHHHHVEIDGGSPMSSASGLRRGHPAGGEENMTETDAFYKREMFDPAEKYKMDHRRRGIALIFNHERFFWHLTLPERRGTCADRDNLTRRFSDLGFEVKCFNDLKAEELLLKIHEVSTVSHADADCFVCVFLSHGEGNHIYAYDAKIEIQTLTGLFKGDKCHSLVGKPKIFIIQACRGNQHDVPVIPLDVVD"}, "B4": {"name": "caspase-3 (wild type) (protein)", "chain": "MENTENSVDSKSIKNLEPKIIHGSESMDSGISLDNSYKMDYPEMGLCIIINNKNFHKSTGMTSRSGTDVDAANLRETFRNLKYEVRNKNDLTREEIVELMRDVSKEDHSKRSSFVCVLLSHGEEGIIFGTNGPVDLKKITNFFRGDRCRSLTGKPKLFIIQACRGTELDCGIETDSGVDDDMACHKIPVDADFLYAYSTAPGYYSWRNSKDGSWFIQSLCAMLKQYADKLEFMHILTRVNRKVATEFESFSFDATFHAKKQIPCIVSMLTKELYFYH"}}, "key": {"[1]": {"molecular_target": "T1, C-terminus of lamin A, P02545", "T1 chain": "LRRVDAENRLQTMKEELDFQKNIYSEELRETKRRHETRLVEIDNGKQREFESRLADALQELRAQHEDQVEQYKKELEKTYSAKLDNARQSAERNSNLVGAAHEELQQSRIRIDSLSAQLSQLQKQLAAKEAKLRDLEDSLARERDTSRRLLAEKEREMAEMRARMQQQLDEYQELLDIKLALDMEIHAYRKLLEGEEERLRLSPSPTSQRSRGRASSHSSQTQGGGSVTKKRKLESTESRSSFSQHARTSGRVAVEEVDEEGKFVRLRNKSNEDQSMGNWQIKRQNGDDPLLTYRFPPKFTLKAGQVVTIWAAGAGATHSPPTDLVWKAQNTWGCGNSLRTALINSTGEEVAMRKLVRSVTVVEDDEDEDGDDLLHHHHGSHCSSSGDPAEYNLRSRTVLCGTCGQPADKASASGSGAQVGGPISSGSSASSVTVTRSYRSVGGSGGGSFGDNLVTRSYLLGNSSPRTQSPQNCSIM"}, "[2]": {"molecular_target": "poly(ADP) ribose polymerase (PARP), P09874", "sequence (P09874 whole entry, looked up)": "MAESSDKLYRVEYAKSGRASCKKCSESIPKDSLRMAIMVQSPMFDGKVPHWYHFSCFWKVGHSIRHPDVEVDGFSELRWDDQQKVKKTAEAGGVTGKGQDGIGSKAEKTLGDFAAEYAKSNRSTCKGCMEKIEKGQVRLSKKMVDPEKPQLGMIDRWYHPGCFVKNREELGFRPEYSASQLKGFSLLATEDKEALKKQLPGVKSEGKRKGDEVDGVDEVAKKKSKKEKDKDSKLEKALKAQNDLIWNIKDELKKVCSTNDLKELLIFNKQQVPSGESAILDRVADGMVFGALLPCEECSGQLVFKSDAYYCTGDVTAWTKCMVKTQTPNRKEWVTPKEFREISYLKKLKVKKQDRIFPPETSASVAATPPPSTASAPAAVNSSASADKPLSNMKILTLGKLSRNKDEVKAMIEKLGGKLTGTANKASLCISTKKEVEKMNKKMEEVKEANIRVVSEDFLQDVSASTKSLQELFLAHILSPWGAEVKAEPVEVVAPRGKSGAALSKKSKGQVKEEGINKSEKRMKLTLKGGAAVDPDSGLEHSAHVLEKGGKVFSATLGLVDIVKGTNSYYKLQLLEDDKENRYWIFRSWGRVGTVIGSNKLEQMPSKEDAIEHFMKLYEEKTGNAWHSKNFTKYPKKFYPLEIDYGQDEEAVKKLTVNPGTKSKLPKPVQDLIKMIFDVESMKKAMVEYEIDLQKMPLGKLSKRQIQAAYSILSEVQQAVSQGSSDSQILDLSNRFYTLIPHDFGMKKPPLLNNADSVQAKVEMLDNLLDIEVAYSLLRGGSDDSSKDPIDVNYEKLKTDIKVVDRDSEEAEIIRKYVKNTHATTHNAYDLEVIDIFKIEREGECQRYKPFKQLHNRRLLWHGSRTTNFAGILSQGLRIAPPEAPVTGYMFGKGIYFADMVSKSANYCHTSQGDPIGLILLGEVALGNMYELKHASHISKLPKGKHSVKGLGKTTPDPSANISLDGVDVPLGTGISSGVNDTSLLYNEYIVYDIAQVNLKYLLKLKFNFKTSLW"}, "[3]": {"molecular_target": "T2, rev-caspase-3 (human, UniProt P42574 1-175, limits assumed)", "T2 sequence": "B2 chain", "assay": "cell-based or functional assay"}}, "note": "fmk = not defined here"}
{"binder": "B1", "values": [{"measurement": "substrate cleavage (bacterial extract incubated with 35S-labelled lamin A C-terminus, autoradiography)", "setting": "[1]", "value": "both caspase-6 variants, but not caspase-3 variants efficiently cleaved lamin"}, {"measurement": "substrate cleavage (bacterial extract incubated with purified PARP, Western blot)", "setting": "[2]", "value": "Both caspase-3 variants (rev and WT), but not caspase-6 variants efficiently cleaved PARP"}]}
{"binder": "B2", "values": [{"measurement": "substrate cleavage (bacterial extract incubated with 35S-labelled lamin A C-terminus, autoradiography)", "setting": "[1]", "value": "both caspase-6 variants, but not caspase-3 variants efficiently cleaved lamin"}, {"measurement": "substrate cleavage (bacterial extract incubated with purified PARP, Western blot)", "setting": "[2]", "value": "Both caspase-3 variants (rev and WT), but not caspase-6 variants efficiently cleaved PARP"}]}
{"binder": "B3", "values": [{"measurement": "substrate cleavage (bacterial extract incubated with 35S-labelled lamin A C-terminus, autoradiography)", "setting": "[1]", "value": "both caspase-6 variants, but not caspase-3 variants efficiently cleaved lamin"}, {"measurement": "substrate cleavage (bacterial extract incubated with purified PARP, Western blot)", "setting": "[2]", "value": "Both caspase-3 variants (rev and WT), but not caspase-6 variants efficiently cleaved PARP"}]}
{"binder": "B4", "values": [{"measurement": "substrate cleavage (bacterial extract incubated with 35S-labelled lamin A C-terminus, autoradiography)", "setting": "[1]", "value": "both caspase-6 variants, but not caspase-3 variants efficiently cleaved lamin"}, {"measurement": "substrate cleavage (bacterial extract incubated with purified PARP, Western blot)", "setting": "[2]", "value": "Both caspase-3 variants (rev and WT), but not caspase-6 variants efficiently cleaved PARP"}]}
{"binder": "{code z}-Val-Ala-Asp-fmk (reading uncertain; also: printed as z-VAD-fmk)", "note": "[z-VAD-fmk]", "values": [{"measurement": "amount of inhibitor required for complete inhibition, relative to DEVD-CHO", "setting": "[3]", "value": "~10", "unit": "fold"}]}
